# Experimental data as given in patent publication US20130344053A1, “Methods of Modifying Insulin Signaling Using Biliverdin Reductase (BVR) and BVR Derived Peptides” (University of Rochester, priority 2010, published 2013).
# Legend:
# [1] = system: insulin receptor substrate-1 (IRS-1) peptide Y^608
# [2] = system: rat smooth muscle cells (PAC1); assay: Glucose uptake in PAC1 cells (IGF-dependent); format: cell-based; conditions: myristoylated peptide 2 h, then IGF-1 50 ng/ml 10 min
# Procedure: Glucose uptake was tested as described infra. Cells were starved in low glucose serum-depleted DMEM for 20 hours prior to transfer to PBS containing CaCl2, MgCl2. After 2 hrs myristoylated peptides were added to the medium for 2 hours. Thereafter, IGF-1 (50 ng/ml) or insulin (100 nM) was added (10 min) and glucose uptake was tested for 3 min in the presence of methyl-D-glucose,3-O-[methyl-3H]. Subsequently cells were washed 3 times in cold PBS and solubilized in NaOH (0.05 mM). Aliquots were measured for radioactivity. Non-specific binding or diffusion were tested by addition of 300 mM glucose to the cells. This value was deducted from the total counts (on the average <20%) and results were normalized for protein concentration.
# (§1) FIGS. 15A-B show the effect of hBVR-based peptides on IGF-dependent glucose uptake in rat smooth muscle cells (PAC1) (FIG. 15A) and insulin-dependent glucose uptake in human epithelial kidney (HEK) cells (FIG. 15B). Cells were treated as described for FIG. 14 and glucose uptake was measured as described infra.
# (§2) The therapeutic utility of various BVR peptides with regard to their ability to modify insulin and insulin growth factor (IGF) mediated cellular glucose uptake was evaluated. Human embryonic kidney cells (HEK293) or rat aortic smooth muscle cells (PAC) were starved in low glucose serum-depleted DMEM for twenty hours prior to transfer to PBS containing CaCl2, MgCl2. After two hours, myristoylated peptides were added to the medium for two additional hours. Thereafter, IGF-1 (50 ng/ml) or insulin (100 nM) was added (10 min) and glucose uptake was tested for three minutes in the presence of methyl-D-glucose,3-O-[methyl-3H]. Subsequently, cells were washed three times in cold PBS and solubilized in NaOH (0.05 mM). Aliquots were measured for radioactivity. Non-specific binding or diffusion was tested by addition of 300 mM glucose to the cells. This value was deducted from the total counts (on the average <20%) and results were normalized for protein concentration.
# [3] = system: human epithelial kidney (HEK) cells; assay: Insulin-dependent glucose uptake in HEK cells; format: cell-based; conditions: myristoylated peptide 2 h, then insulin 100 nM 10 min
# Procedure: as §1, §2
# 293A cells = assay: Insulin-mediated glucose uptake (2DG) in 293A cells; format: cell-based, human; conditions: insulin 15 min, 2DG 15 min, vs controls infected with vector alone, p≦0.05
# Procedure: FIG. 12A-D illustrates that “knock-down” BVR and Y^198 detection increased glucose uptake into 293A cells upon insulin induction. As shown in the graph of FIG. 12A, insulin treatment increases BVR activity. 293A cells were treated with insulin (50 nM) and subsequently used at indicated time points for BVR activity measurement. […] Purified BVR was phosphorylated by IRK for the indicated periods. Reactions were terminated by diluting with PBS and freezing at −20° C. BVR activity was determined as in FIG. 12A, and normalized to that of the control (43.8 μmol per min per mg). […] 293A cells were incubated with insulin and after 8 min or 30 min, subjected to immunoprecipitation using anti-human BVR antibodies. The phosphorylated BVR was visualized by immunoblotting using anti-tyrosine antibodies. ECL system was used for visualization of phosphorylated BVR. […]
# Glucose uptake was assessed by measuring 2-deoxy 1-[^3H] glucose (2DG) absorption as described by (Braiman et al. (Mol. Endocrinol. 13:2002-12 (1999)), which is hereby incorporated by reference), with minor modifications. […] Radioactivity was measured and data was normalized to protein concentration. Non-specific uptake was determined in the presence of 200 mM of glucose and was subtracted from the total uptake. […]
# human BVR = assay: BVR autophosphorylation; format: biochemical; conditions: pH 8.4, 30 mM MnCl2, 2 h at 30° C.
# Procedure: In FIG. 9A, effect of tyrosine mutations of BVR on its autophosphorylation is shown. Human wtBVR and BVR with mutations in tyrosine were used in the experiment to determine autophosphorylation of BVR. The reactions were performed as described in the Examples. FIG. 9B is a graph showing that BVR tyrosine kinase activity was checked by incubating 5 μg purified BVR with 5 μg Raytide in 50 μl kinase buffer containing 10 μM labeled ATP for 2 h at 30° C. The aliquots of the reaction were transferred onto P81 Whatman filters and radioactivity due to phosphorylation was measured using a scintillation counter.
# FIGS. 10A-B illustrate that autophosphorylation of BVR is an Mn^+2 dependant kinase reaction. […] The effects of different metal ions (30 mM MnCl2, 20 mM MgCl2, 20 mM CaCl2, 20 mM Zn acetate) and their combinations were analyzed as indicated in the text. […] Phosphorylation of wtBVR by IRK in the presence of tyrosine kinase inhibitor genestein (200 μM); DMSO was used as the vehicle for genestein and was included in the control reaction mixture. The reactions were carried out in HEPES buffer (pH 8.0) in the presence of 20 mM MgCl2 as described in the Examples.
# To detect autophosphorylation of BVR, GST-hBVR of wild type (wt) and mutant variants were incubated in 50 mM HEPES buffer (pH 8.4) in the presence of 30 mM MnCl2 and 1 mM DTT for 2 h at 30° C. The reaction was started with the addition of 10 μM ATP labeled with 10 μCi [γ-^32P]-ATP and was stopped with the addition of Laemmli sample buffer. Samples were boiled for 3 min and applied to a 8% SDS-PAGE gels, transferred to a PVDF membrane, and then visualized by autoradiography. […] The reaction was started with the addition of ATP and terminated by adding 120 μl 10% H3PO4. 100 μl aliquots were directly transferred to P81 Whatman filters which were subsequently washed extensively in 0.75% phosphoric acid at room temperature. Finally, the filters were submerged in acetone for 5 min, dried, and retained counts were measured using a Beckman LS 6500 liquid scintillation counter (Beckman Coulter, Fullerton, Calif.).
# [4] = target: T1, insulin receptor kinase (IRK) (Homo sapiens, UniProt P06213); assay: BVR phosphorylation by the insulin receptor tyrosine kinase (IRK); format: biochemical; conditions: tyrosine point mutant as IRK substrate, 2 h at 30° C.
# T1 construct: GST-hBVR fusion protein and the 48 kDa cytoplasmic domain of the β-subunit of IRK; purchased Biomol International (Plymouth, Pa.)
# T1 sequence (P06213 980-1382 limits assumed): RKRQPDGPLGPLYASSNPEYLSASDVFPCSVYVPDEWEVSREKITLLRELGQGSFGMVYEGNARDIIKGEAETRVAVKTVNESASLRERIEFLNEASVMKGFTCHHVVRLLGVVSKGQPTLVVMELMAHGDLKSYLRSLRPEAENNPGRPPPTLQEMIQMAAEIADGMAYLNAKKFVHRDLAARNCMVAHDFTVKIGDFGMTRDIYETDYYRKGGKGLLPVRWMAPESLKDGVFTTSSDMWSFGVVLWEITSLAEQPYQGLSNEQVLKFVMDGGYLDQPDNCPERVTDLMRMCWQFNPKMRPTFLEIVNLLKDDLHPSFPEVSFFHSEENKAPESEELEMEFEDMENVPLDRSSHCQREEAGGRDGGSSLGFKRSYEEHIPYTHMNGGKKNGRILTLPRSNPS
# Procedure: FIGS. 7A-B illustrate BVR as a substrate for insulin receptor kinase. […] 10 μg purified wtBVR was incubated in 100 μl kinase assay buffer (pH 8.0) containing 0.1 μg IRK, 10 μM ATP, and 20 μCi [^32P]-ATP at 25° C. up to 4 h. The reaction was terminated by the addition of Laemmli buffer at different points of time as indicated. Samples were separated using 8% SDS-PAGE gel and transferred onto PVDF filter, and phosphorylated protein bands were visualized by autoradiography. […] From left to right lane 1, wtBVR plus IRK in the presence of 50 mM EDTA (pH 8.0); lane 2, wtBVR plus IRK; lane 3, wtBVR in the absence of IRK. The reaction mixtures were subjected to SDS-PAGE electrophoresis and transferred onto a polyvinylidene fluoride (“PVDF”) filter. The blot was immuno-stained with anti-phosphotyrosine antibodies and ECL detection system was used to visualize phosphorylated tyrosines. […] In FIG. 8A the Y^198 residue of BVR is phosphorylated by IRK. Purified wtBVR and Y^198 mutant BVR were incubated with IRK at 30° C. for 2 h. Samples were subjected to SDS-PAGE electrophoresis and processed as described in FIG. 8B. FIG. 8B is a time course of Y^198 mutant BVR phosphorylation by IRK. A purified preparation of human BVR that carried Y^198 mutation was incubated with IRK for up to 3 h as described in FIG. 7A. Samples taken at the indicated time-points were analyzed for detection of phosphorylated proteins as above. […] Subsequently, samples were subjected to SDS-PAGE, stained with Coomassie blue and visualized bands were excised and used for measurement of radioactive content. The experiments were repeated three times. […] The indicated double mutants of BVR were used as substrates for IRK and analysis was carried out as in FIG. 8A. FIGS. 10A-B illustrate that autophosphorylation of BVR is an Mn^+2 dependant kinase reaction. […] The effects of different metal ions (30 mM MnCl2, 20 mM MgCl2, 20 mM CaCl2, 20 mM Zn acetate) and their combinations were analyzed as indicated in the text. […] The reactions were carried out in HEPES buffer (pH 8.0) in the presence of 20 mM MgCl2 as described in the Examples. Phosphorylation of BVR by IRK was examined using GST-hBVR fusion protein and the 48 kDa cytoplasmic domain of the β-subunit of IRK. BVR (5 μg) was incubated in 50 μl of IRK kinase buffer containing 50 mM HEPES (pH 8.0), 20 mM MgCl2, 1 mM DTT in the presence of 0.05 μg IRK and 10 μM ATP labeled with 10 μCi [γ-^32P]-ATP. The reaction was started with the addition of labeled ATP and incubated for 2-4 h. Reactions were terminated by addition of Laemmli sample buffer and boiled for 3 min. Samples were subjected to 8% SDS-PAGE and transferred to PVDF membranes for autoradiography.
molecule,measurement,setting,value
"GST-hBVR G17 mutant (GVGRA to GVARA), ATP binding domain mutant",IRS phosphorylation by BVR (kinase assay),[1],"G^17 mutation, for the most part, prevented IRS phosphorylation by BVR"
"KRNRYLSF (Biliverdin reductase derived peptide) [hBVR peptide, amino acids 224-231 of BVR]",IGF-mediated cellular glucose uptake in PAC1 cells,[2],inhibit IGF-mediated cellular glucose uptake
same,insulin mediated cellular glucose uptake in HEK cells,[3],antagonizing insulin mediated cellular glucose uptake
"siBVR: human BVR siRNA, target nt96-nt116, expressed from retroviral vector pSuper-Retro-siBVR (chain 1 UCCUCAGCGUUCCUGAACCUG; chain 2 AGGAGUCGCAAGGACUUGGAC)",insulin-mediated glucose uptake by cells,293A cells,significantly increased insulin-mediated glucose uptake
"Y^198: human BVR point mutant DQYMK to DQFMK (protein, UniProt P53004 3-296, looked up, variant Y198F) Biliverdin reductase A: AEPERKFGVVVVGVGRAGSVRMRDLRNPHPSSAFLNLIGFVSRRELGSIDGVQQISLEDALSSQEVEVAYICSESSSHEDYIRQFLNAGKHVLVEYPMTLSLAAAQELWELAEQKGKVLHEEHVELLMEEFAFLKKEVVGKDLLKGSLLFTAGPLEEERFGFPAFSGISRLTWLVSLFGELSLVSATLEERKEDQFMKMTVCLETEKKSPLSWIEEKGPGLKRNRYLSFHFKSGSLENVPNVGVNKNIFLKDQNIFVQKLLGQFSEKELAAEKKRILHCLGLAEEIQKYCCSRK",autophosphorylation of BVR (mutants),human BVR,did not result in significant changes in autophosphorylation of BVR
same,insulin-mediated glucose uptake by cells,293A cells,increased significantly
same,reduction of extent of BVR phosphorylation by IRK compared with wtBVR,[4],~70%
